From PMC5681435, “Differential Regulation of G1 CDK Complexes by the Hsp90-Cdc37 Chaperone System” (Cell Reports, 2017)
Values joined by “and” are separate entries in the source; they are usually repeats but may differ in a detail not shown here. Identical values can stand only once. “Also recorded” adds a separate entry of the source.

Key:
CDK6 = target: T1, CDK6 (Homo sapiens, UniProt Q00534); experiment: SPR binding to immobilized GSTCDK6; conditions: for Kd: GSTCDK6 captured on chip, 4 °C
T1 construct: Full length human CDK4 and CDK6 with an N-terminal; made in house; host or cells: Sf9 insect cells (baculovirus, MultiBac)

CDK4 = target: T2, CDK4 (Homo sapiens, UniProt P11802); experiment: SPR binding to immobilized GSTCDK4; conditions: for Binding to CDK4 by SPR (in words): GSTCDK4 captured on chip
T2 construct: Full length human CDK4 and CDK6 with an N-terminal; made in house; host or cells: Sf9 insect cells (baculovirus, MultiBac)

[1] = target: T3, CDK6-Cdc37 and CDK6-Cdc37-SfHsp90 complexes (Homo sapiens, UniProt Q00534); experiment: Pull-down with Avi-tagged bait from CDK6-Cdc37 and CDK6-Cdc37-SfHsp90 complexes assembled in insect cells; type: binding; conditions: 3-fold molar excess of complex, 4 °C
T3 construct: Full length human CDK4 and CDK6 with an N-terminal; made in house; host or cells: Sf9 insect cells (co-expression, baculovirus)
Experimental: exchange chromatography (HiTrap Q, GE Healthcare). Protein concentrations were determined by NanoDrop2000 UV-Vis Spectrophotometer (Thermo Scientific) or using a Shimadzu UV1800 spectrophotometer. A representative SDS-polyacrylamide gel stained with silver is shown in Figure S4 to illustrate the purity of the GSTCDK4 and GSTCDK6 […]
Avi-tagged proteins (Cdc37, p16INK4a, p16INK4a mutants, Kcyclin and Vcyclin) were biotinylated to provide an affinity tag for the streptavidin-tagged XL665 dye. A substantial amount of biotinylated protein was purified from the recombinant E. coli cells as a result of endogenous BirA activity. Proteins were further modified by incubating 40 µM of the Avi-tagged protein with 10 µg BirA in biotinylation buffer (50 mM Bicine pH 8.3, 10 mM ATP, 10 mM MgOAc, 50 µM d-biotin) at 30°C for 60 minutes. […] The extent of protein biotinylation was monitored by pull downs using High Capacity NeutrAvidin® Agarose Resin (Thermo […]
To assemble the various complexes, 15 µg of Cdc37 was mixed with a molar equivalent of CDK6, and incubated for 1hour at 4 °C. […] The reactions were stopped by addition of 2 x LDS buffer and analysed by SDS-PAGE and subsequent western blotting using an anti-phosphorylated S780 antibody […]
Homogenous time-resolved fluorescence (HTRF) […]

CDK4-cyclin D1 = tested on: CDK4-cyclin D1; parameters: method as in Koh et al., 1995; conditions: ref Koh et al., 1995; cited from earlier work
CDK4-Cdc37 complex = target: T4, CDK4-Cdc37 complex (Homo sapiens, UniProt P11802); type: binding; conditions: HTRF competition, 8 nM GSTCDK4, 150 nM C-Avi Cdc37
T4 construct: Full length human CDK4 and CDK6 with an N-terminal; made in house; host or cells: GSTCDK4: Sf9 insect cells; Cdc37: E. coli

[2] = Differential scanning fluorimetry (DSF) melting temperature; type: physicochemical; conditions: for Tm: 5 µM protein
G1 progression = tested on: G1 progression; parameters: method as in Koh et al., 1995; conditions: ref Koh et al., 1995; cited from earlier work

T1 sequence (Q00534 whole entry): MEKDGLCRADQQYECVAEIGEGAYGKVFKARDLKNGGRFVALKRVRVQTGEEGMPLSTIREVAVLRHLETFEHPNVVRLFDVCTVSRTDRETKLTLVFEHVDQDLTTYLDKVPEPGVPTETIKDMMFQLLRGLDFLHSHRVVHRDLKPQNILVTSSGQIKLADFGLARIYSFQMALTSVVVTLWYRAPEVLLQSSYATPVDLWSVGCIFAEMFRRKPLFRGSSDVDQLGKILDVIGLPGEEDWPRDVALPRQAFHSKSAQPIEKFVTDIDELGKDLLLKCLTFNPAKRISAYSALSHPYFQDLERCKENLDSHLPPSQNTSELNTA
T4 sequence (P11802 whole entry, one chain of several): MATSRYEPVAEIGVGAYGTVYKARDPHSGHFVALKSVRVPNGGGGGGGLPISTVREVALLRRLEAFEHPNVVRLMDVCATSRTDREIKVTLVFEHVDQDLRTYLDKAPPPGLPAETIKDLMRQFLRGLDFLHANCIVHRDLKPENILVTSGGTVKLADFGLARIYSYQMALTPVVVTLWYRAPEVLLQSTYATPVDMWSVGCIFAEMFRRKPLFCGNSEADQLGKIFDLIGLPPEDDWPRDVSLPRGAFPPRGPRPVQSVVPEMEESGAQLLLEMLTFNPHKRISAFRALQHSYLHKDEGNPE
T2 sequence (P11802 whole entry): as the sequence (P11802 whole entry, one chain of several) above
T3 sequence (Q00534 whole entry, one chain of several): as the sequence (Q00534 whole entry) above

B1: Vcyclin: viral D-type cyclin from Herpesvirus saimiri (protein)
chain: MADSPNRLNRAKIDSTTMKDPRVLNNLKLRELLLPKFTSLWEIQTEVTVDNRTILLTWMHLLCESFELDKSVFPLSVSILDRYLCKKQGTKKTLQKIGAACVLIGSKIRTVKPMTVSKLTYLSCDCFTNLELINQEKDILEALKWDTEAVLATDFLIPLCNALKIPEDLWPQLYEAASTTICKALIQPNIALLSPGLICAGGLLTTIETDNTNCRPWTCYLEDLSSILNFSTNTVRTVKDQVSEAFSLYDLEIL
Kd (CDK6): 0.016 ± 0.013 nM
Binding to CDK4 by SPR (in words) (CDK4): the data quality precluded calculation of a Kd

B2: Kcyclin: viral D-type cyclin from Kaposi’s sarcoma-associated herpesvirus (protein)
chain: MATANNPPSGLLDPTLCEDRIFYNILEIEPRFLTSDSVFGTFQQSLTSHMRKLLGTWMFSVCQEYNLEPNVVALALNLLDRLLLIKQVSKEHFQKTGSACLLVASKLRSLTPISTSSLCYAAADSFSRQELIDQEKELLEKLAWRTEAVLATDVTSFLLLKLLGGSQHLDFWHHEVNTLITKALVDPKTGSLPASIISAAGCALLVPANVIPQDTHSGGVVPQLASILGCDVSVLQAAVEQILTSVSDFDLRILDSY
modifications: biotin (on the Avi tag); left off: Avi tag, end not stated, kept
notes: viral D-type cyclin from Kaposi’s sarcoma-associated herpesvirus
Displacement of CDK6 from CDK6-Cdc37 and CDK6-Cdc37-SfHsp90 (pull-down) [1]: able to displace CDK6; also recorded: could extract CDK6

B3: p16D84N: p16INK4a mutant in which D84 is mutated to an asparagine (protein)
chain: MEPAAGSSMEPSADWLATAAARGRVEEVRALLEAGALPNAPNSYGRRPIQVMMMGSARVAELLLLHGAEPNCADPATLTRPVHNAAREGFLDTLVVLHRAGARLDVRDAWGRLPVDLAEELGHRDVARYLRAAAGGTRGSNHARIDAAEGPSDIPD
Inhibition of CDK4-cyclin D1 kinase activity (CDK4-cyclin D1): as effectively as wild-type p16INK4a
Displacement of Cdc37 from CDK4-Cdc37 complex (in words) (CDK4-Cdc37 complex): unable to displace CDK4 or CDK6 from Cdc37
Tm [2]: 45.1 (±1.9) °C
Tm ([2]; listed as D84N): 45.1 °C
Kd (CDK6): 60 nM
Inhibition of G1 progression (G1 progression): modestly less effective
Binding to CDK4 by SPR (in words) (CDK4): binding could be detected but not quantified

B4: p16M53E: p16INK4a M53E mutant (protein)
chain: MEPAAGSSMEPSADWLATAAARGRVEEVRALLEAGALPNAPNSYGRRPIQVMEMGSARVAELLLLHGAEPNCADPATLTRPVHDAAREGFLDTLVVLHRAGARLDVRDAWGRLPVDLAEELGHRDVARYLRAAAGGTRGSNHARIDAAEGPSDIPD
ΔTm (versus p16INK4a) [2]: −4.6 (±1.66) °C
Tm [2]: 43.2 (±0.38) °C

B5: p16D108N: p16INK4a mutant, D108 mutated to an asparagine (protein)
chain: MEPAAGSSMEPSADWLATAAARGRVEEVRALLEAGALPNAPNSYGRRPIQVMMMGSARVAELLLLHGAEPNCADPATLTRPVHDAAREGFLDTLVVLHRAGARLDVRNAWGRLPVDLAEELGHRDVARYLRAAAGGTRGSNHARIDAAEGPSDIPD
Displacement of Cdc37 from CDK4-Cdc37 complex (in words) (CDK4-Cdc37 complex): only a modest reduction in activity
ΔTm (versus p16INK4a) [2]: −10.5 (±1.29) °C
Tm [2]: 36.4 °C and 36.4 (±3.1) °C

B6: p16M53I: p16INK4a mutant in which M53 is mutated to an isoleucine (protein)
chain: MEPAAGSSMEPSADWLATAAARGRVEEVRALLEAGALPNAPNSYGRRPIQVMIMGSARVAELLLLHGAEPNCADPATLTRPVHDAAREGFLDTLVVLHRAGARLDVRDAWGRLPVDLAEELGHRDVARYLRAAAGGTRGSNHARIDAAEGPSDIPD
Displacement of Cdc37 from CDK4-Cdc37 complex (in words) (CDK4-Cdc37 complex): ineffective
ΔTm (versus p16INK4a) [2]: −4.9 (±2.33) °C
Tm [2]: 42.7 (±0.47) °C
Tm ([2]; listed as M53I): 42.7 °C
Higher rate of dissociation from CDK6 compared with wild-type p16INK4a (CDK6): approximately 10 fold
Binding to CDK4 by SPR (in words) (CDK4): binding could be detected but not quantified
Reduction in the strength of the interaction with CDK4 versus wild-type p16INK4a (CDK4; enhanced koff rate toward CDK4): > 10^6 fold
